Columns and labels:
twst1_human TWIST1 [1] = molecular target: twst1_human TWIST1 (UniProt Q15672)
twst1_human TWIST1 [2] = molecular target: twst1_human TWIST1 (UniProt Q15672); remark: listed apart in the source

Substance | effect of a mutation on the interaction (twst1_human TWIST1 [1]) | effect of a mutation on the interaction (twst1_human TWIST1 [2])
Bromodomain-containing protein 4 (Homo sapiens) (from UniProt O60885-1) H437D | decreasing interaction strength | –
Bromodomain-containing protein 4 (Homo sapiens) (from UniProt O60885-1) D144H | – | increasing interaction strength

— IntAct's records for PubMed 24525235
